Results as given in patent US6328728A, “Composition and method for enhancing electrotransport agent delivery” (Alza Corporation, priority 1997, dated 2001).

Assay: Measurement of circular dichroism (mean residue ellipticity at 222 nm)
Format: physicochemical
Conditions: for Ellipticity (mean residue at 222 nm) / Ellipticity (mean residue) (222 nm), raw / Ellipticity (mean residue) (222 nm), raw value: 32° C.
Description: In general, the structure of a polypeptide in an aqueous buffered solution is in constant flux between portions thereof being random coil and alpha-helix configurations. For the polypeptides used in the following examples, the predominant structure is a random coil since the alpha-helix configuration is unstable in the absence of bound surfactant. According to the present invention adding surfactant to an aqueous solution of a polypeptide stabilizes the alpha-helix configuration. Circular dichroism is a measurement of the amount of the alpha-helix configured polypeptide present in the solution. Thus, circular dichroism provides an indirect measurement of the degree of binding of the surfactant to the polypeptide. (See, for example, Epand R. M., Epand R. F., Orlowski R. C., Schuleter R. J., Boni L. T. and Hui S. W., Biochemistry 22, 5074-5084 (1983); Hui, S. W., Epand R. M., Dell K. R., Epand R. F. and Orlowski R. C., Biochimica Biophysica Acta 772, 264-272 (1984); Epand R. M., Epand R. F., and Orlowski R. C., International Journal Peptide Protein Research 25 105-111; Epand R. M., Epand R. F., Orlowski R. C., Seyler J. K. and Colescott R. L., Biochemistry 25, 1964-1968; Epand R. M., Seyler J. K. and Orlowski R. C., European Journal Biochemistry 159, 125-127 (1986); Wiersema P. H., Loeb A. L. and Overbeek, J., Colloid Interface Science 22, 78-99 (1966)).
The surfactant/peptide circular dichroism (CD) spectra were obtained in a 2 mm path-length cell (110-Q-2 Model, AVIV, Lakewood, N.J.) at 32° C. The cell was initially loaded with 0.60 mL of a solution containing about 0.25 mg/mL of the peptide in 10 mM sodium chloroacetate (pH 3.5) or 10 mM sodium borate (pH 9.0). The buffers were selected to minimize the effect of the temperature on the pH of the solution and to minimize light absorption, thereby optimizing the signal-to-noise ratio (SNR). The peptide concentration was determined by spectrophotometry, with log-log correction for light scattering. The surfactant concentration was increased step-wise by titration of concentrated surfactant stock directly into the CD cell, followed by eight inversions of the cell, with the air bubble providing the mixing turbulence. After mixing, the cell was placed into the AVIV 62 CD spectrometer (AVIV, Lakewood, N.J.). In order to approximate temperature and chemical equilibrium, the sample remained in the spectrometer 5 minutes before a reading was taken. The CD spectrum was taken using a band pass of 1 nm, a data interval of 1 nm, and a data averaging time of 10 seconds. The mean residue ellipticity is the ellipticity divided by the path length in cm times the amino acid residue concentration in decimoles/cm^3. See Methods in Enzymology, Vol 130, pp 208-269, Yang et al, "Calculation of Protein Conformation from Circular Dichroism" (1986).
The measurement procedures described above were conducted on an aqueous solution of the protein insulinotropin, with TWEEN® 20 (MW=1126 g/mol) as the surfactant, with the following modifications. The insulinotropin donor solution concentration was 0.12 mg/mL. One test was run in 10 mM sodium borate at pH 9.0 and another test in 10 mM sodium chloroacetate at pH 3.5.
Fractional changes (%δ) are defined as the difference between the reading at a given surfactant concentration (Ec) minus the reading at zero surfactant (E0), the quantity divided by the difference between the reading at saturated surfactant concentration (Es) minus the reading at zero surfactant (E0), i. e. %δ=(Ec -E0)/(Es-E0).
The measurement procedures described earlier were conducted on an aqueous solution of insulinotropin as the agent, and TWEEN® 40 (molecular weight 1282 g/mol) as the surfactant with the following changes. The insulinotropin concentration was initially 0.29 mg/mL, and 0.21 mg/mL after the final TWEEN® 40 addition and the temperature was held at 32° C. Two tests were conducted at two different concentrations of TWEEN® 40. […]

[1] = pH 3.5, 10 mM sodium chloroacetate, TWEEN 20 0
[2] = pH 3.5, 10 mM sodium chloroacetate, TWEEN 20 0.133 mM
[3] = pH 3.5, 10 mM sodium chloroacetate, TWEEN 20 0.266 mM
[4] = pH 9.0, 10 mM sodium borate, TWEEN 20 0
[5] = pH 9.0, 10 mM sodium borate, TWEEN 20 0.133 mM
[6] = pH 9.0, 10 mM sodium borate, TWEEN 20 0.266 mM
[7] = pH 9.0, 10 mM sodium borate, TWEEN 20 0.515 mM
[8] = pH 9.0, 10 mM sodium borate, TWEEN 20 1.00 mM
[9] = pH 9.0, 10 mM sodium borate, TWEEN 20 1.67 mM
[10] = pH 9.0, 10 mM sodium borate, TWEEN 20 2.56 mM
[11] = pH 9.0, 10 mM sodium borate, TWEEN 20 2.66 mM
[12] = pH 9.0, 10 mM sodium borate, TWEEN 20 4.00 mM
[13] = pH 9.0, 10 mM sodium borate, TWEEN 20 5.00 mM
[14] = pH 9.0, 10 mM sodium borate, TWEEN 20 7.04 mM
[15] = pH 9.0, 10 mM sodium borate, TWEEN 20 7.26 mM
[16] = pH 9.0, 10 mM sodium borate, TWEEN 20 9.41 mM
[17] = pH 9.0, 10 mM sodium borate, TWEEN 20 12.3 mM
[18] = pH 9.0, 10 mM sodium borate, TWEEN 20 17.7 mM
[19] = pH 9.0, 10 mM sodium borate, TWEEN 20 20.0 mM
[20] = pH 9.0, 10 mM sodium borate, TWEEN 20 22.1 mM

Insulinotropin: the protein insulinotropin
Ellipticity (mean residue at 222 nm) (pH 3.5, 10 mM sodium chloroacetate, DTAC 0): -4268 deg-cm^2 /dmol
Ellipticity (mean residue at 222 nm) (pH 3.5, 10 mM sodium chloroacetate, DTAC 0.83 mM): -5182 deg-cm^2 /dmol
Ellipticity (mean residue at 222 nm) (pH 3.5, 10 mM sodium chloroacetate, DTAC 1.64 mM): -7285 deg-cm^2 /dmol
Ellipticity (mean residue at 222 nm) (pH 3.5, 10 mM sodium chloroacetate, DTAC 3.23 mM): -9863 deg-cm^2 /dmol
Ellipticity (mean residue at 222 nm) (pH 3.5, 10 mM sodium chloroacetate, DTAC 5.51 mM): -11672 deg-cm^2 /dmol
Ellipticity (mean residue at 222 nm) (pH 3.5, 10 mM sodium chloroacetate, DTAC 9.10 mM): -11951 deg-cm^2 /dmol
Ellipticity (mean residue at 222 nm) (pH 3.5, 10 mM sodium chloroacetate, DTAC 13.0 mM): -12219 deg-cm^2 /dmol
Ellipticity (mean residue at 222 nm) (pH 3.5, 10 mM sodium chloroacetate, DTAC 25.0 mM): -12326 deg-cm^2 /dmol
Ellipticity (mean residue) (222 nm), raw [1]: -4877
Ellipticity (mean residue) (222 nm), raw [2]: -7087
Ellipticity (mean residue) (222 nm), raw [3]: -8437
Ellipticity (mean residue at 222 nm) (pH 3.5, 10 mM sodium chloroacetate, TWEEN 40 0): -4621 deg-cm^2 /dmol
Ellipticity (mean residue at 222 nm) (pH 3.5, 10 mM sodium chloroacetate, TWEEN 40 0.025 mM): -4997 deg-cm^2 /dmol
Ellipticity (mean residue at 222 nm) (pH 3.5, 10 mM sodium chloroacetate, TWEEN 40 0.092 mM): -6045 deg-cm^2 /dmol
Ellipticity (mean residue at 222 nm) (pH 3.5, 10 mM sodium chloroacetate, TWEEN 40 0.214 mM): -7317 deg-cm^2 /dmol
Ellipticity (mean residue at 222 nm) (pH 3.5, 10 mM sodium chloroacetate, TWEEN 40 0.390 mM): -8554 deg-cm^2 /dmol
Ellipticity (mean residue at 222 nm) (pH 3.5, 10 mM sodium chloroacetate, TWEEN 40 0.718 mM): -10379 deg-cm^2 /dmol
Ellipticity (mean residue at 222 nm) (pH 3.5, 10 mM sodium chloroacetate, TWEEN 40 1.21 mM): -12282 deg-cm^2 /dmol
Ellipticity (mean residue at 222 nm) (pH 3.5, 10 mM sodium chloroacetate, TWEEN 40 2.06 mM): -14017 deg-cm^2 /dmol
Ellipticity, fractional change (% δ) [1]: 0
Ellipticity, fractional change (% δ) [2]: 0.21
Ellipticity, fractional change (% δ) [3]: 0.34
Ellipticity, fractional change (% δ) (pH 3.5, 10 mM sodium chloroacetate, TWEEN 20 0.515 mM): 0.58
Ellipticity, fractional change (% δ) (pH 3.5, 10 mM sodium chloroacetate, TWEEN 20 1.00 mM): 0.59
Ellipticity, fractional change (% δ) (pH 3.5, 10 mM sodium chloroacetate, TWEEN 20 1.67 mM): 0.91
Ellipticity, fractional change (% δ) (pH 3.5, 10 mM sodium chloroacetate, TWEEN 20 2.28 mM): 0.96
Ellipticity, fractional change (% δ) (pH 3.5, 10 mM sodium chloroacetate, TWEEN 20 3.20 mM): 0.97
Ellipticity, fractional change (% δ) (pH 3.5, 10 mM sodium chloroacetate, TWEEN 20 4.44 mM): 1.00
Ellipticity (mean residue) (222 nm), raw value [4]: -5010
Ellipticity (mean residue) (222 nm), raw value [5]: -5641
Ellipticity (mean residue) (222 nm), raw value [6]: -6252
Ellipticity (mean residue) (222 nm), raw value [7]: -6553
Ellipticity (mean residue) (222 nm), raw value [8]: -7050
Ellipticity (mean residue) (222 nm), raw value [9]: -7857
Ellipticity (mean residue) (222 nm), raw value [10]: -7915
Ellipticity (mean residue) (222 nm), raw value [11]: -8970
Ellipticity (mean residue) (222 nm), raw value [12]: -9165
Ellipticity (mean residue) (222 nm), raw value [13]: -9124
Ellipticity (mean residue) (222 nm), raw value [14]: -10288
Ellipticity (mean residue) (222 nm), raw value [15]: -9702
Ellipticity (mean residue) (222 nm), raw value [16]: -10451
Ellipticity (mean residue) (222 nm), raw value [17]: -10540
Ellipticity (mean residue) (222 nm), raw value [18]: -10709
Ellipticity (mean residue) (222 nm), raw value [19]: -10876
Ellipticity (mean residue) (222 nm), raw value [20]: -10872
Ellipticity, fractional change (% δ) [4]: 0
Ellipticity, fractional change (% δ) [5]: .11
Ellipticity, fractional change (% δ) [6]: .21
Ellipticity, fractional change (% δ) [7]: .26
Ellipticity, fractional change (% δ) [8]: .35
Ellipticity, fractional change (% δ) [9]: .49
Ellipticity, fractional change (% δ) [10]: .50
Ellipticity, fractional change (% δ) [11]: .68
Ellipticity, fractional change (% δ) [12]: .71
Ellipticity, fractional change (% δ) [13]: .70
Ellipticity, fractional change (% δ) [14]: .90
Ellipticity, fractional change (% δ) [15]: .80
Ellipticity, fractional change (% δ) [16]: .92
Ellipticity, fractional change (% δ) [17]: .94
Ellipticity, fractional change (% δ) [18]: .97
Ellipticity, fractional change (% δ) [19]: 1.00
Ellipticity, fractional change (% δ) [20]: 1.00
